How the values were obtained:
[1] = biological target: USP46, P62068-1
[2] = biological target: ubp1_human USP1 (UniProt O94782)
Chain of ubp1_human USP1 (O94782 whole entry): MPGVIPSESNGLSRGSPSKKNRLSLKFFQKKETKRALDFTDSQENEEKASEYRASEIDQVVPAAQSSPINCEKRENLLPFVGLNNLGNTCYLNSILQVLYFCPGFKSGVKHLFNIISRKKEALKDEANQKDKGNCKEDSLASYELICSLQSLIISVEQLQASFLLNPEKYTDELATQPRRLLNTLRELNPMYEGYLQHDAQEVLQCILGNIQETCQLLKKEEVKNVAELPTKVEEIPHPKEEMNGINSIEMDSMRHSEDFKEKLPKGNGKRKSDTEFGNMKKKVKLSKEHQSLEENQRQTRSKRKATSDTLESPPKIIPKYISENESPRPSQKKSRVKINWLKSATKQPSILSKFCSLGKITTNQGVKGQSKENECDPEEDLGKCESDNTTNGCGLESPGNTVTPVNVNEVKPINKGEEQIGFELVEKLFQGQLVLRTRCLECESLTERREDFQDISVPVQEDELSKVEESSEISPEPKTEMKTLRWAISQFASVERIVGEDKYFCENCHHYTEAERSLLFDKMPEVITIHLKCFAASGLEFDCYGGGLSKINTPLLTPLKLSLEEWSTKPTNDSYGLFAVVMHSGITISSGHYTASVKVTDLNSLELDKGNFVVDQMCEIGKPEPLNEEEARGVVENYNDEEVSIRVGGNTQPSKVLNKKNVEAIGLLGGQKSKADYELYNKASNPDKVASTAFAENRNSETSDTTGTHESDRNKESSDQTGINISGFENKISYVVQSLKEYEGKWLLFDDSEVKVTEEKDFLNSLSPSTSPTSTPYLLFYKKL

Chain of USP46, P62068-1 (P62068 whole entry): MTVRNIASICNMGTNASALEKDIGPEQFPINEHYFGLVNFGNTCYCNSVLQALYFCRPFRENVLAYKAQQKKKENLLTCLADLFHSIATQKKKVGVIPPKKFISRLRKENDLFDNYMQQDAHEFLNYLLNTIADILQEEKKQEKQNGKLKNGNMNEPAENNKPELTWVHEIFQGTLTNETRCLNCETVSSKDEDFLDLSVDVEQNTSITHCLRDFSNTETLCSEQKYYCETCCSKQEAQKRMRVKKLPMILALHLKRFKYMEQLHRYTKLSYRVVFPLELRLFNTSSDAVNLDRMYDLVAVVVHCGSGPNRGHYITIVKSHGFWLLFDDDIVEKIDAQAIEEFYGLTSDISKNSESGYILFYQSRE

Substance | effect of a mutation on the interaction [1] | effect of a mutation on the interaction [2]
WD repeat-containing protein 48 (Homo sapiens), Q8TAF3-1 S170Y | decreasing interaction strength | 
WD repeat-containing protein 48 (Homo sapiens), Q8TAF3-1 K214E;W256A;R272D | disrupting interaction strength | disrupting interaction strength
